US20240067748A1 (NONA BIOSCIENCES SUZHOU, published 2024)

T1: human TROP2 protein (Sino Biological, #10428-H08H) (human, UniProt P09758 27-274)
T1 construct: bought protein; also called human Trop2 protein antigen (His tag); not shown: His tag
T1 sequence (looked up): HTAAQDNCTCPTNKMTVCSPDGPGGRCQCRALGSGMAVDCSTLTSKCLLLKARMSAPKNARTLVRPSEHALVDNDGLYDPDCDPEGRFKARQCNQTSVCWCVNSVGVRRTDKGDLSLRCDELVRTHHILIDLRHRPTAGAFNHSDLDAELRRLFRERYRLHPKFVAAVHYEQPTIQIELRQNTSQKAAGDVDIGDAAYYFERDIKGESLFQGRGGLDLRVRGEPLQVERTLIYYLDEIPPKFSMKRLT

T2: mouse Trop2-his protein (Sino Biological, #50922-M08H) (mouse, UniProt Q8BGV3 25-270)
T2 construct: bought protein; also called mouse Trop2 protein; not shown: his tag
T2 sequence (looked up): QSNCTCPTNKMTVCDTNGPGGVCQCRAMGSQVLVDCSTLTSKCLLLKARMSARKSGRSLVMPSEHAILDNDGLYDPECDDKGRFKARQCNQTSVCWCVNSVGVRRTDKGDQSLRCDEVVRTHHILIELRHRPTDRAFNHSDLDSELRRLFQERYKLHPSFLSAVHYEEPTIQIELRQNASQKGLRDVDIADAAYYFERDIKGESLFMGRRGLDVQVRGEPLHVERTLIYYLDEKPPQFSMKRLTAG

T3: monkey Trop2 protein (Sino Biological, #90893-C08H) (monkey, UniProt A0A2K5UE71 27-274)
T3 construct: bought protein; also called monkey Trop2 protein antigen (His tag)
T3 sequence: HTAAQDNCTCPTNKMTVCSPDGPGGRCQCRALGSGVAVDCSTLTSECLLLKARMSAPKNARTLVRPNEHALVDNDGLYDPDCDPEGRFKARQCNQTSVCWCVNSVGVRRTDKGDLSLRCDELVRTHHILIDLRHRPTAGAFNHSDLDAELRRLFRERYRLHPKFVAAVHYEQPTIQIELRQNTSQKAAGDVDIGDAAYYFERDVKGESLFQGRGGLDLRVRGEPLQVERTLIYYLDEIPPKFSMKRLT

T4: human Trop2 on cells (human, UniProt P09758 27-323)
T4 sequence (looked up): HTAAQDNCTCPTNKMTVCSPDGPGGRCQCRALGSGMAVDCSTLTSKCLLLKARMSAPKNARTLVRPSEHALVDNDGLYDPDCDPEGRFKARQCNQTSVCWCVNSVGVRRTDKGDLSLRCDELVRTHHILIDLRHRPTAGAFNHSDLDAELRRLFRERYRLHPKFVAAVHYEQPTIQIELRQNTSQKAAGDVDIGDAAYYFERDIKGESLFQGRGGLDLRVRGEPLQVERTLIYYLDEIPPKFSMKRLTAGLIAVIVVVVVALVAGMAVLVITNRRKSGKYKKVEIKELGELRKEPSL


What was measured:
[1] = target: T1, human TROP2 protein (Sino Biological, …); assay: BLI, Octet RED96, AHC sensor
Summary of the method: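 Antibody at 40 nM is tested against captured human or monkey Trop2, which is loaded at 200 nM. Binding lasts 3 min and washout 5 min, both at 30° C in PBS pH 7.4 containing BSA and Tween 20.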

[2] = target: T2, mouse Trop2-his protein (Sino …); assay: ELISA, plate coated with mouse Trop2-his protein, anti-human IgG (H+L)-HRP, OD450 nm
Method: An ELISA plate was coated with 100 μL of 1 μg/mL mouse Trop2-his protein (Sino Biological, #50922-M08H) in PBS at 4° C. overnight. The plate was blocked with 200 μL of PBST (PBS+0.05% tween 20)+2% BSA at 37° C. for 1 h. The plate was washed 4 times with PBST. 100 μL of Trop2 antibody diluted in a gradient (5-fold dilution, starting concentration: 33.33 nM) was added to the ELISA plate and the plate was incubated at 37° C. for 1 h. The plate was washed 4 times with PBST. 100 μL of anti-human IgG (H+L)-HRP (Sigma, #A8667) diluted in 1:4000 was added and the plate was incubated at 37° C. for 1 h. The plate was washed 4 times with PBST. 100 μL of TMB substrate (Invitrogen, #88-7025-88) was added and the plate was incubated at room temperature for 5 min, and then 50 μL of stop buffer (BBI life sciences, #E661006-0200) was added to stop the reaction. The OD450 nm reading was recorded using a microplate reader (Perkin Elmer, EnSpire).

[3] = target: T3, monkey Trop2 protein (Sino Biological, …); assay: BLI, Octet RED96; ratio against KD for human Trop2 protein
Method: Specifically, a human TROP2 protein (Sino Biological, #10428-H08H) or a monkey Trop2 protein (Sino Biological, #90893-C08H) was diluted to 200 nM with a PBS buffer (pH 7.4) containing 0.1% (w/w) BSA and 0.02% (v/v) tween 20, and incubated with the AHC sensor respectively. 40 nM Trop2 antibody was incubated at 30° C. for 3 min with the AHC sensor loaded with the human Trop2 protein or monkey Trop2 protein respectively. The reaction mixture was incubated at 30° C. for another 5 min in a PBS buffer (pH 7.4) containing 0.1% (v/w) BSA and 0.02% (v/v) Tween 20. The association and dissociation signals between the Trop2 antibody and the human Trop2 protein or monkey Trop2 protein were recorded by Octet Red 96 in real time. The affinity and the association and dissociation constants were determined by Octet using software.

[4] = target: T1, human TROP2 protein (Sino Biological, …); assay: BLI epitope binning (Octet), biotinylated human Trop2 on SA sensor; row = primary antibody; competitor (secondary antibody, column): PR001142
Method: (§1) The biotinylated mixture after the incubation was washed three times with PBS and a Zeba centrifugal desalting column (Thermo Fisher, #89882) to remove excess biotin. The biotinylated Trop2 protein was captured by an SA sensor (Pall ForteBio, #18-5019) with the loading baseline set at 0.3 nm. The sensor was immersed in a well of assay buffer containing 50 nM primary antibody for 300 s. […] The binding assay was performed by comparing the binding of the secondary antibody to Trop2 in the presence of the primary antibody to the blocking of the primary antibody itself.

[5] = target: T4, human Trop2 on cells; assay: cell-based or functional assay
[6] = target: T1, human TROP2 protein (Sino Biological, …); assay: BLI epitope binning (Octet), biotinylated human Trop2 on SA sensor; row = primary antibody; competitor (secondary antibody, column): PR001165
Method: as §1

[7] = target: T4, human Trop2 on cells; assay: cell-based or functional assay; remark: listed apart in the source

| Binder | Kd [1] | Response [1] | koff [1] | kon [1] | binding result [2] | KD (monkey)/KD (human) [3] | also measured |
| --- | --- | --- | --- | --- | --- | --- | --- |
| PR001139 (antibody, human IgG1, kappa, V domains shown, fully human IgG1/kappa; also called antibody No. (8)) VH: QVQLVESGGGVVQPGRSLRLSCAASGFTFSSFGMQWVRQGPGKGLEWVAVMWFDGSNKYYVDSVKGRFTISRDNSKNTLYLQMNSLRAEDTAVYYCARLDFSGWPLIDYWGQGTLVTVSS VL: not shown | 4.79 nM | 0.336 | 0.000426 s⁻¹ | 89000 M⁻¹ s⁻¹ | binds | 1.62 |  |
| PR001162 (antibody, human IgG1, kappa, V domains shown, fully human IgG1/kappa; also called antibody No. (23)) VH: QVQLVESGGGVVQPGTSLRLSCVASGFTFSNDGMHWVRQAPGMGLEWVAIMWFDGGSKYYADSVKGRFTISRDNSKNTLYLQMNNLRAEDTAVYYCARDHPHYLGSGSFDYWGQGTLVTVSS VL: EIVLTQSPATLSLSPGERATLSCRASQSVSSYLAWYQQKPGQAPRLLIYDASNRATGIPARFSGSGSGTDFTLTISSLQAEDVAVYYCQQYYSTPYTFGQGTKLEIKR | 1.7 nM | 0.366 | 0.000507 s⁻¹ | 298000 M⁻¹ s⁻¹ | no binding | 2.16 |  |
| PR001128 (antibody, human IgG1, kappa, V domains shown, fully human IgG1/kappa; also called antibody No. (1)) VH: QVQLQESGPGLVKPSGTLSLTCAVSGGSISSSNWWSWVRQPPGKGLEWIGEIFHSGTTYYNPSLKSRVTILVDKSKNQFSLKLSSVTAADTAVYYCARDNTKSWDHFDHWGQGTLVTVSS VL: EIVLTQSPATLSLSPGERATLSCRASQSVGSYLAWYQQKPGQAPSLLIYDASNRATGIPARFSGSGSGTDFTLTISSLEPEDFAVYYCQQRTNWYTFGQGTKLEIKR | < 0.001 nM | 0.402 | < 1e-07 s⁻¹ | 130000 M⁻¹ s⁻¹ | no binding |  |  |
| PR001165 (antibody, human IgG1, kappa, V domains shown, fully human IgG1/kappa; also called antibody No. (26)) VH: QVQLVESGGGVVQPGRSLRLSCEASGFTFSHYGMHWVRQAPGKGLEWVAVIWYDGIKTYYVESVKGRFTISRDNSKNTLNLQMNRLRAEDTAVYYCARDGGFGESNYYGLDVWGQGTTVTVSS VL: DIQLTQSPSFLSASVGDRVTITCRASQGISSYLGWYQQKPGKAPKLLIYIASTLQSGVPSRFSGSGSGTEFTLTISSLQPEDFATYYCQQLNSYPYTFGQGTKLEIKR | < 0.001 nM | 0.38 | < 1e-07 s⁻¹ | 164000 M⁻¹ s⁻¹ | no binding |  | Inhibition rate (%) [4]: 98.1%; fold lower KD than the reference antibody Tab (hRS7) [1]: ~10 fold; ADCP (Donor A1925144#) EC50(nM), BxPC-3 + macrophages [5]: 0.0683 nM; ADCP (Donor A1925144#) Maximum phagocytosis % [5]: 12.5%; ADCP (Donor A1925144#) Minimum phagocytosis % [5]: 2.25%; ADCP (Donor A19143143#) EC50(nM), BxPC-3 + macrophages [5]: 0.178 nM; ADCP (Donor A19143143#) Maximum phagocytosis % [5]: 42.7%; ADCP (Donor A19143143#) Minimum phagocytosis % [5]: 1.37%; Inhibition rate (%) [6]: 97.7%; ADCC (donor 1152#) EC50(nM), BxPC-3 + PBMC, LDH release [7]: 0.0324 nM; ADCC (donor 1152#) Maximum cell killing % [7]: 39%; ADCC (donor 1152#) Minimum cell killing % [7]: 5.79%; ADCC (donor 2153#) EC50(nM), BxPC-3 + PBMC, LDH release [7]: 0.0616 nM; ADCC (donor 2153#) Maximum cell killing % [7]: 70.8%; ADCC (donor 2153#) Minimum cell killing % [7]: 14% |
| PR001130 (antibody, human IgG1, kappa, V domains shown, fully human IgG1/kappa; also called antibody No. (2)) VH: QVQLQESGPGLVKPSGTLSLTCAVSGDSISSHNWWSWVRQPPGKGLEWIGEIYHSGITSYNPSLKSRVTISVDKSKNQFSLKLNSVTAADTAMYYCARGSGVISYFDYWGQGTLVTVSS VL: DIQMTQSPSTLSASVGDRVTITCRASQSIGNWLAWYQQKPGKAPKLLIYKASSLESGVPSRFSGSGSGTEFTLTISSLQPDDFATYYCQQYDSYSPITFGQGTRLEIKR | < 0.001 nM | 0.357 | < 1e-07 s⁻¹ | 55200 M⁻¹ s⁻¹ | no binding |  |  |
| comparative example 2 antibody Tab (hRS7) (antibody, human IgG1, kappa, V domains shown, prepared on the basis of sacituzumab govitecan (ChemPartner, #T07-001); naked antibody) VH: QVQLQQSGSELKKPGASVKVSCKASGYTFTNYGMNWVKQAPGQGLKWMGWINTYTGEPTYTDDFKGRFAFSLDTSVSTAYLQISSLKADDTAVYFCARGGFGSSYWYFDVWGQGSLVTVSS VL: DIQLTQSPSSLSASVGDRVSITCKASQDVSIAVAWYQQKPGKAPKLLIYSASYRYTGVPDRFSGSGSGTDFTLTISSLQPEDFAVYYCQQHYITPLTFGAGTKVEIKR | 0.199 nM | 0.349 |  |  |  |  | Inhibition rate (%) [4]: 93.3%; ADCP (Donor A1925144#) EC50(nM), BxPC-3 + macrophages [5]: 0.125 nM; ADCP (Donor A1925144#) Maximum phagocytosis % [5]: 14.8%; ADCP (Donor A1925144#) Minimum phagocytosis % [5]: 1.72%; ADCP (Donor A19143143#) EC50(nM), BxPC-3 + macrophages [5]: 0.208 nM; ADCP (Donor A19143143#) Maximum phagocytosis % [5]: 44.8%; ADCP (Donor A19143143#) Minimum phagocytosis % [5]: 1.04%; Inhibition rate (%) [6]: 92%; ADCC (donor 1152#) EC50(nM), BxPC-3 + PBMC, LDH release [7]: 0.0391 nM; ADCC (donor 1152#) Maximum cell killing % [7]: 42.1%; ADCC (donor 1152#) Minimum cell killing % [7]: 4.32%; ADCC (donor 2153#) EC50(nM), BxPC-3 + PBMC, LDH release [7]: 0.08 nM; ADCC (donor 2153#) Maximum cell killing % [7]: 62.6%; ADCC (donor 2153#) Minimum cell killing % [7]: 10.2% |
| PR001133 (antibody, human IgG1, kappa, V domains shown, fully human IgG1/kappa; also called antibody No. (5)) VH: QVNLVESGGGVVQPGRSLKLSCAASGFTFSSYGMHWVRQAPGKGLEWVALIWSDGTNRYYTESVKGRFTISRDNSKNTLSLQMKSLRAEDTAVYYCAKDGWGTYGEYFQHWGQGTLVTVSS VL: DIQMTQSPSSLSASVGDRVTITCRASQNINSYLHWYQQKPGKAPKLLIYAASSLQSGVPSRFSGSGSGTDFTLTISSLQPEDFAIYYCQQSYSIPPITFGQGTRLEIKR | 1.1 nM | 0.386 | 9.72e-05 s⁻¹ | 88500 M⁻¹ s⁻¹ | no binding | 2.27 |  |
